Patent US20130178605A1 (GLENMARK PHARMACEUTICALS S A, published 2013)
Positions count from the first letter of the chain named. Names may count otherwise.

T1: human CD19 cell-surface protein (on Raji cells) (human, UniProt P15391 20-556)
T1 construct: whole, on cells; also called hCD19
T1 sequence (looked up): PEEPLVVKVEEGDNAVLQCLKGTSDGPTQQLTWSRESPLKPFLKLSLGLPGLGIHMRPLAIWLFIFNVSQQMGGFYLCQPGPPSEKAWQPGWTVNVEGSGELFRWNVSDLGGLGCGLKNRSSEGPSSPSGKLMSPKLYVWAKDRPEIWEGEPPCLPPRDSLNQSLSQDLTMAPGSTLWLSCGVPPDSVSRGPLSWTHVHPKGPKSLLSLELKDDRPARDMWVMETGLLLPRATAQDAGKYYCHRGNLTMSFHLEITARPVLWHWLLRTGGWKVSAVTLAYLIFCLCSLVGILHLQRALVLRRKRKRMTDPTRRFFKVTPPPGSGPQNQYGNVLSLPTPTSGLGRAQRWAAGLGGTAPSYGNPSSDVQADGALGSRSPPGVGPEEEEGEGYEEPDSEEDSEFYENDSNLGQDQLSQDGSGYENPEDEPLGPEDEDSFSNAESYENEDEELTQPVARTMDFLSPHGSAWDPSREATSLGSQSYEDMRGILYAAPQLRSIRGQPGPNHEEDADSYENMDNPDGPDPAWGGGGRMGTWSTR

B1: Fc (BTA)-F405S-Y407V-K409W-T411N chain (other)
chain: DKTHTCPPCPAPELLGGPSVFLFPPKPKDTLMISRTPEVTCVVVDVSHEDPEVKFNWYVDGVEVHNAKTKPREEQYNSTYRVVSVLTVLHQDWLNGKEYKCKVSNKALPAPIEKTISKAKGQPREPQVYTLPPSRDELTKNQVSLTCLVKGFYPSDIAVEWESNGQPENNYKTTPPVLDSDGSFSLVSWLNVDKSRWQQGNVFSCSVMHEALHNHYTQKSLSLSPGK
notes: Human IGHG1 Fc chain with the named substitutions (EU numbering)
B2: Fc IGHAG chain (other)
chain: B1 chain with Q127E, Y129H, K150R, V177R, D179E, S185A, V187T, W189K, N191T
notes: Human IGHG1 Fc chain with CH3 substitutions Q347E, Y349H, K370R, V397R, D399E, F405A, Y407T (EU numbering)
B3: BT delta chain (other)
chain: B1 chain with L131M, S144N, T146A, G151E, K172F, T174A, D179S, S185N, W189L, N191K
B4: Fc (BTA)-Y407V-K409W-T411N chain (other)
chain: B1 chain with S185F
notes: as for B1
B5: Fc (BTA)-S364K-T366V-K370T-K392Y-K409W-T411N chain (other)
chain: B1 chain with S144K, T146V, K150T, K172Y, S185F, V187Y
notes: as for B1
B6: anti-hCD19_anti-hVLA2 bispecific antibody (bispecific antibody, human IgG1, kappa)
heavy 1: QVQLQESGPGLVKPSETLSLTCTVSGFSLTNYGIHWIRQPPGKGLEWLGVIWARGFTNYNSALMSRLTISKDNSKNQVSLKLSSVTAADTAVYYCARANDGVYYAMDYWGQGTLVTVSSASTKGPSVFPLAPSSKSTSGGTAALGCLVKDYFPEPVTVSWNSGALTSGVHTFPAVLQSSGLYSLSSVVTVPSSSLGTQTYICNVNHKPSNTKVDKKVEPKSCDKTHTCPPCPAPELLGGPSVFLFPPKPKDTLMISRTPEVTCVVVDVSHEDPEVKFNWYVDGVEVHNAKTKPREEQYNSTYRVVSVLTVLHQDWLNGKEYKCKVSNKALPAPIEKTISKAKGQPREPQVYTLPPSRDELTKNQVKLVCLVTGFYPSDIAVEWESNGQPENNYYTTPPVLDSDGSFSLVSWLNVDKSRWQQGNVFSCSVMHEALHNHYTQKSLSLSPGKHHHHHH
light 1: DFVMTQSPAFLSVTPGEKVTITCSAQSSVNYIHWYQQKPDQAPKKLIYDTSKLASGVPSRFSGSGSGTDYTFTISSLEAEDAATYYCQQWTTNPLTFGQGTKVEIKRTVAAPSVFIFPPSDEQLKSGTASVVCLLNNFYPREAKVQWKVDNALQSGNSQESVTEQDSKDSTYSLSSTLTLSKADYEKHKVYACEVTHQGLSSPVTKSFNRGEC
heavy 2: QVQLVQSGGGVVQPGRSLRLSCAASGVSLPDYGVSWVRQAPGKGLEWVAVIWGSETTYYNSALKSRFTISRDNSKNTLYLQMNSLRAEDTAVYYCAKHYYYGGSYAMDYWGQGTLVTVSSASTKGPSVFPMAPSSKSTSGGTANLACLVKEYFPEPVTVSWNSGALTSGVFTAPAVLSSSGLYNLVSLVKVPSSSLGTQTYICNVNHKPSNTKVDKKVEPKSCDKTHTCPPCPAPELLGGPSVFLFPPKPKDTLMISRTPEVTCVVVDVSHEDPEVKFNWYVDGVEVHNAKTKPREEQYNSTYRVVSVLTVLHQDWLNGKEYKCKVSNKALPAPIEKTISKAKGQPREPEVATFPPSRDELTKNQVTLVCLVTGFYPSDIAVEWESNGQPENNYKTDPPLLESDGSFALSSRLRVDKSRWQQGNVFSCSVMHEALHNHYTQKSLSLSPGKEQKLISEEDLN
light 2: DIQMTQSPSSLSASVGDRVTITCRASQDISKYLNWYQQKPGKAIKLLIYHTSRLHSGVPSRFSGSGSGTDFTLTISSLQPEDFATYYCQQGATLPYTFGPGTKVDIKRTVAAPKVTIFPPSDEQLKSGTATVLCLLEKFYPREAKVQWKVDNALQSGNSQEGVMEQDSKDSTYMLFSWLTLSKADYEKHKVYACEVTHQGLSSPVTKSFNRGEC
notes: Four distinct chains; also called anti-hCD19_anti-VLA2 bispecific antibody
B7: anti-hVLA2 antibody (antibody, human IgG1, kappa, V domains shown)
VH: QVQLQESGPGLVKPSETLSLTCTVSGFSLTNYGIHWIRQPPGKGLEWLGVIWARGFTNYNSALMSRLTISKDNSKNQVSLKLSSVTAADTAVYYCARANDGVYYAMDYWGQGTLVTVSS
VL: DFVMTQSPAFLSVTPGEKVTITCSAQSSVNYIHWYQQKPDQAPKKLIYDTSKLASGVPSRFSGSGSGTDYTFTISSLEAEDAATYYCQQWTTNPLTFGQGTKVEIKR
notes: Control with a single specificity, obtained by co-transfection of chain one with chain two of the bispecific antibody
B8: BT alpha IGHG3 chain (other)
chain: DKTHTCPPCPAPELLGGPSVFLFPPKPKDTLMISRTPEVTCVVVDVSHEDPEVKFNWYVDGVEVHNAKTKPREEQYNSTYRVVSVLTVLHQDWLNGKEYKCKVSNKALPAPIEKTISKAKGQPREPQVYTLPPSREEMTKNQVKLVCLVTGFYPSDIAVEWESSGQPENNYYTTPPMLDSDGSFSLVSWLNVDKSRWQQGNIFSCSVMHEALHNRFTQKSLSLSPGK
B9: anti-hCD19 antibody (antibody, human IgG1, V domains shown)
VH: QVQLVQSGGGVVQPGRSLRLSCAASGVSLPDYGVSWVRQAPGKGLEWVAVIWGSETTYYNSALKSRFTISRDNSKNTLYLQMNSLRAEDTAVYYCAKHYYYGGSYAMDYWGQGTLVTVSS
VL: DIQMTQSPSSLSASVGDRVTITCRASQDISKYLNWYQQKPGKAIKLLIYHTSRLHSGVPSRFSGSGSGTDFTLTISSLQPEDFATYYCQQGATLPYTFGPGTKVDIKR
notes: Control with a single specificity, obtained by co-transfection of chain three with chain four of the bispecific antibody

Experiments:
[1] = biological target: T2, VL-Fc (BTB)-F405A-Y407S-K409R-T411R chain; assay: co-expression in HEK293-EBNA, protein-A purification, non-reducing SDS-PAGE scanning densitometry, impurities omitted
T2 construct: Human IGHG1 Fc chain with the named substitutions (EU numbering), fused to a variable light-chain kappa domain antibody

[2] = biological target: T3, VL-Fc (BTB)-Y407S-K409R chain; assay: as above
T3 construct: Human IGHG1 Fc chain with the named substitutions (EU numbering), fused to a variable light-chain kappa domain antibody

[3] = biological target: T4, VL-Fc (BTB)-F405A-Y407S-K409R chain; assay: as above
T4 construct: Human IGHG1 Fc chain with the named substitutions (EU numbering), fused to a variable light-chain kappa domain antibody

[4] = biological target: T5, VL-Fc (BTB)-F405A-Y407S chain; assay: as above
T5 construct: Human IGHG1 Fc chain with the named substitutions (EU numbering), fused to a variable light-chain kappa domain antibody

[5] = biological target: T6, VL-Fc (BTB)-F405A-K409R chain; assay: as above
T6 construct: Human IGHG1 Fc chain with the named substitutions (EU numbering), fused to a variable light-chain kappa domain antibody

[6] = biological target: T7, VL-Fc IGHGA chain; assay: co-expression in HEK293-EBNA, protein-A purification, non-reducing SDS-PAGE scanning densitometry
T7 construct: Human IGHG1 Fc chain with CH3 substitutions S364T, K392L, T394W, K409I, T411R (EU numbering), fused to VL

[7] = biological target: VL-BT gamma chain; assay: as above
[8] = biological target: T8, VL-Fc (BTB)-K409R-T411R chain; assay: co-expression in HEK293-EBNA, protein-A purification, non-reducing SDS-PAGE scanning densitometry, impurities omitted
T8 construct: Human IGHG1 Fc chain with the named substitutions (EU numbering), fused to a variable light-chain kappa domain antibody

[9] = biological target: T1, human CD19 cell-surface protein (on …); assay: flow cytometry on Raji cells (CD19+ VLA2-), 10 µg/ml, detected by c-myc tag (FIG. 31A) and by His tag (FIG. 31B)
[10] = biological target: T1, human CD19 cell-surface protein (on …); assay: flow cytometry on Raji cells, detected with mouse anti His tag antibody
[11] = biological target: VL-BT beta F405A chain; assay: co-expression in HEK293-EBNA, protein-A purification, non-reducing SDS-PAGE scanning densitometry
[12] = biological target: T9, alpha 2 subunit of the human VLA-2 receptor (on HT1080 cells) (human, UniProt P17301 30-1181); assay: flow cytometry on HT1080 cells, detected with mouse anti c-myc tag antibody
T9 construct: whole, on cells; also called hVLA2

| Binder | hetero-dimer formation percentage [1] [%] | hetero-dimer formation percentage [2] [%] | hetero-dimer formation percentage [3] [%] | hetero-dimer formation percentage [4] [%] | hetero-dimer formation percentage [5] [%] | further results |
| --- | --- | --- | --- | --- | --- | --- |
| B1 | 9 | 5 | 15 | 7 | 4 | – |
| B2 | – | – | – | – | – | hetero-dimer percent of the protein-A purified material [6]: ≥ 54% |
| B3 | – | – | – | – | – | hetero-dimer percent of the protein-A purified material [7]: ≥ 52.1% |
| B4 | 53 | 25 | 52 | 50 | 25 | – |
| B5 | 88 | 74 | 72 | 90 | 60 | hetero-dimer formation percentage [8]: 32% |
| B6 | – | – | – | – | – | binding result [9]: binds |
| B7 | – | – | – | – | – | binding result [10]: no binding |
| B8 | – | – | – | – | – | hetero-dimer percent of the protein-A purified material [11]: ≥ 91% |
| B9 | – | – | – | – | – | binding result [12]: no binding |
